Experimental data as given in PMC5428876, “The role of Lon-mediated proteolysis in the dynamics of mitochondrial nucleic acid-protein complexes”.

Experiments:
Abf2 = target: T1, Abf2 (Saccharomyces cerevisiae, UniProt Q02486 27-183, del1-26); experiment: EMSA; 25 mM Tris-HCl pH 7.4, 100 mM NaCl, 0.1 mg/ml BSA, 10 min, 30 C (Abf2) or 37 C (TFAM); Cy3 probes 75 nM, ssDNA 10 uM, dsDNA 4 uM; Mgm101 as in Pevala et al.; settings: protein: recombinant, tags: 6xHis-GST removed by PreScission, chain copies: 2, label: 5' Cy3
T1 sequence: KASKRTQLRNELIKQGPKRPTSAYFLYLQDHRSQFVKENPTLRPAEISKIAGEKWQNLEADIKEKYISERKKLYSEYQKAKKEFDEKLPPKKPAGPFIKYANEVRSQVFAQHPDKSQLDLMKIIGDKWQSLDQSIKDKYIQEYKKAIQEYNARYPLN

[1] = target: T2, Saccharomyces cerevisiae mtDNA packaging protein Abf2 lacking the mitochondrial targeting sequence (S. cerevisiae), Q02486; experiment: SEC; final purification step of Abf2 on Superdex 75 10/300 GL in buffer B (50 mM ammonium acetate, pH 7.3, 500 mM KCl) with 5% (v/v) glycerol; settings: remark: other sources report otherwise
T2 chain: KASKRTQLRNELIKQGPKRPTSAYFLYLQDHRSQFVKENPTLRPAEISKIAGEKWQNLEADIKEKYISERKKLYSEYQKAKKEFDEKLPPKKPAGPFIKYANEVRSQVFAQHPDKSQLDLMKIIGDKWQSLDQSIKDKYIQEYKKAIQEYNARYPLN

B1: dsDNA 49 bp (dsDNA)
DNA 1: AGCTACCATGCCTGCACGAATTAAGCAATTCGTAATCATGGTCATAGCT
DNA 2: AGCTATGACCATGATTACGAATTGCTTAATTCGTGCAGGCATGGTAGCT
B1: binds (Abf2; blunt).

B2: 5' overhang (mixed)
DNA 1: AGCTACCATGCCTGCACGAATTAAGCAATTCGTAATCATGGTCATAGCT
DNA 2: AGCTATGACCATGATTACGAATTGCTT
B2: binds (Abf2; 5' overhang 22 nt).

B3: 5' flap (structured_DNA)
DNA 1: AGCTACCATGCCTGCACGAATTAAGCAATTCGTAATCATGGTCATAGCT
DNA 2: AGCTATGACCATGATTACGAATTGCTT
DNA 3: GATGTCAAGCAGTCCTAAGGAATTCGTGCAGGCATGGTAGCT
B3: binds (Abf2; flap 1:2 1:3, 5' flap 20 nt on strand 3).

B4: 3' overhang (mixed)
DNA 1: AGCTACCATGCCTGCACGAATTAAGCAATTCGTAATCATGGTCATAGCT
DNA 2: AATTCGTGCAGGCATGGTAGCT
B4: binds (Abf2; 3' overhang 27 nt).

B5: fork (structured_DNA)
DNA 1: AGCTACCATGCCTGCACGAATTAAGCAATTCGTAATCATGGTCATAGCT
DNA 2: AGCTATGACCATGATTACGAATTGCTTGGAATCCTGACGAACTGTAG
DNA 3: CTACAGTTCGTCAGGATTCC
DNA 4: AATTCGTGCAGGCATGGTAGCT
B5: binds (Abf2; fork).

B6: Y-form (structured_DNA)
DNA 1: AGCTACCATGCCTGCACGAATTAAGCAATTCGTAATCATGGTCATAGCT
DNA 2: AGCTATGACCATGATTACGAATTGCTTGGAATCCTGACGAACTGTAG
B6: binds (Abf2; Y-form).

B7: 3' flap (structured_DNA)
DNA 1: AGCTACCATGCCTGCACGAATTAAGCAATTCGTAATCATGGTCATAGCT
DNA 2: AATTCGTGCAGGCATGGTAGCT
DNA 3: AGCTATGACCATGATTACGAATTGCTTGGAATCCTGACGAACTGTAG
B7: binds (Abf2; flap 1:2 1:3, 3' flap 20 nt on strand 3).

B8: Saccharomyces cerevisiae mtDNA packaging protein Abf2 lacking the mitochondrial targeting sequence, Q02486 27-183 (natural protein)
chain: KASKRTQLRNELIKQGPKRPTSAYFLYLQDHRSQFVKENPTLRPAEISKIAGEKWQNLEADIKEKYISERKKLYSEYQKAKKEFDEKLPPKKPAGPFIKYANEVRSQVFAQHPDKSQLDLMKIIGDKWQSLDQSIKDKYIQEYKKAIQEYNARYPLN
B8 gave a stoichiometry N [1] of 2.
